The values below come from patent publication US20090010966A1.

For data set [1], the target named is elongation factor 2 (EF2) (UniProt P55823).
Data set [2] concerns the target elongation factor 2 (EF2) (rabbit) (UniProt P55823). The experiment in a line: cell-based or functional assay.

Turning to DT382 V28S, the Relative IVTT score (ratio (IC50 WT / IC50 mutant)) in data set [1] worked out at 3.61.

“control DT(ΔR), truncated DT comprising the C and I domains only (from UniProt P00588 33-414) (enzyme)”: the inhibition of transcription/translation of T7-luc plasmid (IVTT) in data set [2] was 90%.
